Patent US20050192282A1, “Chemokine inhibiting piperazine derivatives and their use to treat multiple myeloma” (Schering Aktiengesellschaft, priority 2004, published 2005)
Entries after “also recorded” stand apart in the source; their conditions may differ.

T1: Human CCR1 (Homo sapiens, UniProt P32246)
T1 sequence (P32246 1-355): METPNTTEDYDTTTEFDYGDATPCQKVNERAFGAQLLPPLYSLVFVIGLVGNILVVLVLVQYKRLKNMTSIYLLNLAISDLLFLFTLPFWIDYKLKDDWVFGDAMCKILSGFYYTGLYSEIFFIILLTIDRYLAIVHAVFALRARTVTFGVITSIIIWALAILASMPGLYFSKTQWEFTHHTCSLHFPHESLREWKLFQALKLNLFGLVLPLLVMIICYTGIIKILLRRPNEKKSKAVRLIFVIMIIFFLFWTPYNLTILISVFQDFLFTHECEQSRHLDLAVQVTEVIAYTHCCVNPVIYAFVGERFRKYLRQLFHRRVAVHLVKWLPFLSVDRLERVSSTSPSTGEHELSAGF

B1: MIP-1α: human CC chemokine, ligand for CCR1 and CCR5; recombinant form used as stimulus (protein, UniProt P10147 24-92, looked up)
C-C motif chemokine 3: SLAADTPTACCFSYTSRQIPQNFIADYFETSSQCSKPGVIFLTKRSRQVCADPSEEWVQKYVSDLELSA
B2: MIP-1β: human chemokine binding CCR1 with low affinity (protein, UniProt P13236 24-92, looked up)
C-C motif chemokine 4: APMGSDPPTACCFSYTARKLPRNFVVDYYETSSLCSQPAVVFQTKRSKQVCADPSESWVQEYVYDLELN

What was measured:
Human CCR1 = target: T1, Human CCR1; details: cited from earlier work
[1] = system: β1 integrin mRNA expression in MM.1S human Myeloma cells; assay: RT-PCR analysis of β1 integrin mRNA expression in MM.1S myeloma cells cocultured with ST2 stromal cells; assay type: cell-based; details: MM.1S cocultured with ST2; treated with 1 ng/ml of rhMIP-1a, 12 hours

Molecule	ability to signal through human CCR1 (Human CCR1)	β1 integrin mRNA expression levels [1]
MCP-1: human chemokine binding CCR1 with low affinity	neither ligand is able to signal	
B1		significantly increased; also recorded: significantly enhanced
B2	neither ligand is able to signal	
